Data on 14 molecules can be found in patent US20250188139A1 (published 2025).

Where a chain is given by its changes, count along the chain named.

Assay [1] addresses T1, Human VEGFR-3 extracellular domain (amino acids 25-329), AviTag, hexahistidine tag, biotinylated (human, UniProt P35916 25-329, biotinylated with BirA ligase (AviTag)).
T1 chain (part 1 of 2): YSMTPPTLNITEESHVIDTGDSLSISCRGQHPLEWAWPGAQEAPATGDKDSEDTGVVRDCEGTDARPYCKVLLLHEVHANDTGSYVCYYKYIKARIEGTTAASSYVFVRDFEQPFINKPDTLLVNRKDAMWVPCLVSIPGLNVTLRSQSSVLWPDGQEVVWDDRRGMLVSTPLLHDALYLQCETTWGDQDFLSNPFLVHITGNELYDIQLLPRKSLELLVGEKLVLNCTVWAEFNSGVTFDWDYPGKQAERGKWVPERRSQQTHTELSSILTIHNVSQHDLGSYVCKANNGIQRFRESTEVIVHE
T1 chain (part 2 of 2): HHHHHH
Description: yeast display flow cytometry binding.

The next assay addresses VEGFR2. The assay can be described thus: SPR. On the technique in general: In SPR one partner is held on a chip, and binding of the other changes the refractive index at the surface.
The target of the next assay is VEGFR3. Description: SPR.

B1: Clone 15 (protein)
chain: NTEILKSIDNEWRKTQCMPREVAIDVGKEFGVATNTFFKPPCVSVYRCGGCCISEGLQCMNTSTSYLSKTLFEITVPISQGPKPVTISFANHTSCRCMSKL
On to B1, for which the EC50 in assay [1] turned out to be 21.5 nM.

B2: Clone 13 (protein)
chain: B1 chain with I78L
In assay [1], B2 showed an EC50 of 32.3 nM.

B3: Clone 7 (protein)
chain: B1 chain with I53Q, I78L
In assay [1], B3 registered an EC50 of 71 nM. This EC50 lies about 2.2-fold higher than the previous one.

B4: Clone 31 (protein)
chain: B1 chain with I53H, I78L
On to B4, for which a half-maximal response in assay [1] (EC50) required 94.5 nM.

B5: Clone 10 (protein)
chain: B1 chain with I53Q, S54G
As to B5, the EC50 in assay [1] is 65.5 nM.

B6: Clone 39 (protein)
chain: B1 chain with S54R, I78L
For B6, in assay [1], the response was half-maximal at 104 nM (EC50).

B7: Clone 21 (protein)
chain: B1 chain with I53N, S54G
As to B7, the 50% effective concentration (EC50) in assay [1] came out at 44.8 nM.

B8: Clone 14 (protein)
chain: B1 chain with S54G, I78L
In the case of B8, the EC50 in assay [1] was found to be 74.5 nM.

B9: WT (ligand)
chain: B1 chain with A23C, V32A, I53N, S65G, I78L
With B9, the Kd with VEGFR2 was 0.227 nM; with VEGFR3, 0.0107 nM.

B10: Clone 16 (protein)
chain: B1 chain with S54G
As for B10, the midpoint of the response in assay [1], the EC50, lay at 36.8 nM. That is a double-digit nanomolar value.

B11: Clone 8 (protein)
chain: B1 chain with I53Q, S54G, I78L
B11 yielded an EC50 in assay [1] of 124 nM. This EC50 is about 3.4-fold higher than that of the molecule before.

B12: WT VEGFC (protein)
chain: B1 chain with A23C, I53N, I78L
B12: the EC50 in assay [1] came out at 34.8 nM.

B13: Clone 19 (protein)
chain: B1 chain with I53N, S54G, I78L
With B13, in assay [1], it took 51.3 nM to reach a half-maximal effect (EC50). This EC50 and that of the molecule before are within 1.5-fold of each other.

B14: Clone 9 (protein)
chain: B1 chain with I53Q
Regarding B14, the EC50 in assay [1] was determined as 65.7 nM.

The term EC50 denotes the concentration giving half of the maximal effect. A low value points to greater potency. For orientation: Kd means the equilibrium constant for the complex coming apart. A high value points to weaker binding.
